This is an account of results in US20260295010 (published 2026).

The labels stand for the following.
B1: IL-12p70 D162A (protein)
chain 1: MIWELKKDVYVVELDWYPDAPGEMVVLTCDTPEEDGITWTLDQSSEVLGSGKTLTIQVKEFGDAGQYTCHKGGEVLSHSLLLLHKKEDGIWSTDILKDQKEPKNKTFLRCEAKNYSGRFTCWWLTTISTDLTFSVKSSRGSSDPQGVTCGAATLSAERVRGANKEYEYSVECQEDSACPAAEESLPIEVMVDAVHKLKYENYTSSFFIRDIIKPDPPKNLQLKPLKNSRQVEVSWEYPDTWSTPHSYFSLTFSVQVQGKSKREKKDRVFTDKTSATVICRKNASISVRAQDRYYSSSWSEWASVPCSGGGSHHHHHH
chain 2: MRNLPVATPDPGMFPSLHHSQNLLRAVSNMLQKARQTLEFYPCTSEEIDHEDITKDKTSTVEACLPLELTKNESCLNSRETSFITNGSSLASRKTSFMMALCLSSIYEDLKMYQVEFKTMNAKLLMDPKRQIFLDQNMLAVIDELMQALNFNSETVPQKSSLEEPDFYKTKIKLCILLHAFRIRAVTIDRVMSYLNAS
B2: IL-12p70 E46A (protein)
chain 1: MIWELKKDVYVVELDWYPDAPGEMVVLTCDTPEEDGITWTLDQSSAVLGSGKTLTIQVKEFGDAGQYTCHKGGEVLSHSLLLLHKKEDGIWSTDILKDQKEPKNKTFLRCEAKNYSGRFTCWWLTTISTDLTFSVKSSRGSSDPQGVTCGAATLSAERVRGDNKEYEYSVECQEDSACPAAEESLPIEVMVDAVHKLKYENYTSSFFIRDIIKPDPPKNLQLKPLKNSRQVEVSWEYPDTWSTPHSYFSLTFSVQVQGKSKREKKDRVFTDKTSATVICRKNASISVRAQDRYYSSSWSEWASVPCSGGGSHHHHHH
chain 2: MRNLPVATPDPGMFPSLHHSQNLLRAVSNMLQKARQTLEFYPCTSEEIDHEDITKDKTSTVEACLPLELTKNESCLNSRETSFITNGSSLASRKTSFMMALCLSSIYEDLKMYQVEFKTMNAKLLMDPKRQIFLDQNMLAVIDELMQALNFNSETVPQKSSLEEPDFYKTKIKLCILLHAFRIRAVTIDRVMSYLNAS
B3: IL-12p70 E87A (protein)
chain 1: MIWELKKDVYVVELDWYPDAPGEMVVLTCDTPEEDGITWTLDQSSEVLGSGKTLTIQVKEFGDAGQYTCHKGGEVLSHSLLLLHKKADGIWSTDILKDQKEPKNKTFLRCEAKNYSGRFTCWWLTTISTDLTFSVKSSRGSSDPQGVTCGAATLSAERVRGDNKEYEYSVECQEDSACPAAEESLPIEVMVDAVHKLKYENYTSSFFIRDIIKPDPPKNLQLKPLKNSRQVEVSWEYPDTWSTPHSYFSLTFSVQVQGKSKREKKDRVFTDKTSATVICRKNASISVRAQDRYYSSSWSEWASVPCSGGGSHHHHHH
chain 2: MRNLPVATPDPGMFPSLHHSQNLLRAVSNMLQKARQTLEFYPCTSEEIDHEDITKDKTSTVEACLPLELTKNESCLNSRETSFITNGSSLASRKTSFMMALCLSSIYEDLKMYQVEFKTMNAKLLMDPKRQIFLDQNMLAVIDELMQALNFNSETVPQKSSLEEPDFYKTKIKLCILLHAFRIRAVTIDRVMSYLNAS
B4: IL-12p70 S45A (protein)
chain 1: MIWELKKDVYVVELDWYPDAPGEMVVLTCDTPEEDGITWTLDQSAEVLGSGKTLTIQVKEFGDAGQYTCHKGGEVLSHSLLLLHKKEDGIWSTDILKDQKEPKNKTFLRCEAKNYSGRFTCWWLTTISTDLTFSVKSSRGSSDPQGVTCGAATLSAERVRGDNKEYEYSVECQEDSACPAAEESLPIEVMVDAVHKLKYENYTSSFFIRDIIKPDPPKNLQLKPLKNSRQVEVSWEYPDTWSTPHSYFSLTFSVQVQGKSKREKKDRVFTDKTSATVICRKNASISVRAQDRYYSSSWSEWASVPCSGGGSHHHHHH
chain 2: MRNLPVATPDPGMFPSLHHSQNLLRAVSNMLQKARQTLEFYPCTSEEIDHEDITKDKTSTVEACLPLELTKNESCLNSRETSFITNGSSLASRKTSFMMALCLSSIYEDLKMYQVEFKTMNAKLLMDPKRQIFLDQNMLAVIDELMQALNFNSETVPQKSSLEEPDFYKTKIKLCILLHAFRIRAVTIDRVMSYLNAS
B5: IL-12p70 D42A (protein)
chain 1: MIWELKKDVYVVELDWYPDAPGEMVVLTCDTPEEDGITWTLAQSSEVLGSGKTLTIQVKEFGDAGQYTCHKGGEVLSHSLLLLHKKEDGIWSTDILKDQKEPKNKTFLRCEAKNYSGRFTCWWLTTISTDLTFSVKSSRGSSDPQGVTCGAATLSAERVRGDNKEYEYSVECQEDSACPAAEESLPIEVMVDAVHKLKYENYTSSFFIRDIIKPDPPKNLQLKPLKNSRQVEVSWEYPDTWSTPHSYFSLTFSVQVQGKSKREKKDRVFTDKTSATVICRKNASISVRAQDRYYSSSWSEWASVPCSGGGSHHHHHH
chain 2: MRNLPVATPDPGMFPSLHHSQNLLRAVSNMLQKARQTLEFYPCTSEEIDHEDITKDKTSTVEACLPLELTKNESCLNSRETSFITNGSSLASRKTSFMMALCLSSIYEDLKMYQVEFKTMNAKLLMDPKRQIFLDQNMLAVIDELMQALNFNSETVPQKSSLEEPDFYKTKIKLCILLHAFRIRAVTIDRVMSYLNAS
B6: IL-12p70 S44A (protein)
chain 1: MIWELKKDVYVVELDWYPDAPGEMVVLTCDTPEEDGITWTLDQASEVLGSGKTLTIQVKEFGDAGQYTCHKGGEVLSHSLLLLHKKEDGIWSTDILKDQKEPKNKTFLRCEAKNYSGRFTCWWLTTISTDLTFSVKSSRGSSDPQGVTCGAATLSAERVRGDNKEYEYSVECQEDSACPAAEESLPIEVMVDAVHKLKYENYTSSFFIRDIIKPDPPKNLQLKPLKNSRQVEVSWEYPDTWSTPHSYFSLTFSVQVQGKSKREKKDRVFTDKTSATVICRKNASISVRAQDRYYSSSWSEWASVPCSGGGSHHHHHH
chain 2: MRNLPVATPDPGMFPSLHHSQNLLRAVSNMLQKARQTLEFYPCTSEEIDHEDITKDKTSTVEACLPLELTKNESCLNSRETSFITNGSSLASRKTSFMMALCLSSIYEDLKMYQVEFKTMNAKLLMDPKRQIFLDQNMLAVIDELMQALNFNSETVPQKSSLEEPDFYKTKIKLCILLHAFRIRAVTIDRVMSYLNAS
B7: IL-12p70 E87K (protein)
chain 1: MIWELKKDVYVVELDWYPDAPGEMVVLTCDTPEEDGITWTLDQSSEVLGSGKTLTIQVKEFGDAGQYTCHKGGEVLSHSLLLLHKKKDGIWSTDILKDQKEPKNKTFLRCEAKNYSGRFTCWWLTTISTDLTFSVKSSRGSSDPQGVTCGAATLSAERVRGDNKEYEYSVECQEDSACPAAEESLPIEVMVDAVHKLKYENYTSSFFIRDIIKPDPPKNLQLKPLKNSRQVEVSWEYPDTWSTPHSYFSLTFSVQVQGKSKREKKDRVFTDKTSATVICRKNASISVRAQDRYYSSSWSEWASVPCSGGGSHHHHHH
chain 2: MRNLPVATPDPGMFPSLHHSQNLLRAVSNMLQKARQTLEFYPCTSEEIDHEDITKDKTSTVEACLPLELTKNESCLNSRETSFITNGSSLASRKTSFMMALCLSSIYEDLKMYQVEFKTMNAKLLMDPKRQIFLDQNMLAVIDELMQALNFNSETVPQKSSLEEPDFYKTKIKLCILLHAFRIRAVTIDRVMSYLNAS
B8: IL-12p70 I278Y (protein)
chain 1: MIWELKKDVYVVELDWYPDAPGEMVVLTCDTPEEDGITWTLDQSSEVLGSGKTLTIQVKEFGDAGQYTCHKGGEVLSHSLLLLHKKEDGIWSTDILKDQKEPKNKTFLRCEAKNYSGRFTCWWLTTISTDLTFSVKSSRGSSDPQGVTCGAATLSAERVRGDNKEYEYSVECQEDSACPAAEESLPIEVMVDAVHKLKYENYTSSFFIRDIIKPDPPKNLQLKPLKNSRQVEVSWEYPDTWSTPHSYFSLTFSVQVQGKSKREKKDRVFTDKTSATVYCRKNASISVRAQDRYYSSSWSEWASVPCSGGGSHHHHHH
chain 2: MRNLPVATPDPGMFPSLHHSQNLLRAVSNMLQKARQTLEFYPCTSEEIDHEDITKDKTSTVEACLPLELTKNESCLNSRETSFITNGSSLASRKTSFMMALCLSSIYEDLKMYQVEFKTMNAKLLMDPKRQIFLDQNMLAVIDELMQALNFNSETVPQKSSLEEPDFYKTKIKLCILLHAFRIRAVTIDRVMSYLNAS
B9: IL-12p70 Q43A (protein)
chain 1: MIWELKKDVYVVELDWYPDAPGEMVVLTCDTPEEDGITWTLDASSEVLGSGKTLTIQVKEFGDAGQYTCHKGGEVLSHSLLLLHKKEDGIWSTDILKDQKEPKNKTFLRCEAKNYSGRFTCWWLTTISTDLTFSVKSSRGSSDPQGVTCGAATLSAERVRGDNKEYEYSVECQEDSACPAAEESLPIEVMVDAVHKLKYENYTSSFFIRDIIKPDPPKNLQLKPLKNSRQVEVSWEYPDTWSTPHSYFSLTFSVQVQGKSKREKKDRVFTDKTSATVICRKNASISVRAQDRYYSSSWSEWASVPCSGGGSHHHHHH
chain 2: MRNLPVATPDPGMFPSLHHSQNLLRAVSNMLQKARQTLEFYPCTSEEIDHEDITKDKTSTVEACLPLELTKNESCLNSRETSFITNGSSLASRKTSFMMALCLSSIYEDLKMYQVEFKTMNAKLLMDPKRQIFLDQNMLAVIDELMQALNFNSETVPQKSSLEEPDFYKTKIKLCILLHAFRIRAVTIDRVMSYLNAS
B10: IL-12p70 D162K (protein)
chain 1: MIWELKKDVYVVELDWYPDAPGEMVVLTCDTPEEDGITWTLDQSSEVLGSGKTLTIQVKEFGDAGQYTCHKGGEVLSHSLLLLHKKEDGIWSTDILKDQKEPKNKTFLRCEAKNYSGRFTCWWLTTISTDLTFSVKSSRGSSDPQGVTCGAATLSAERVRGKNKEYEYSVECQEDSACPAAEESLPIEVMVDAVHKLKYENYTSSFFIRDIIKPDPPKNLQLKPLKNSRQVEVSWEYPDTWSTPHSYFSLTFSVQVQGKSKREKKDRVFTDKTSATVICRKNASISVRAQDRYYSSSWSEWASVPCSGGGSHHHHHH
chain 2: MRNLPVATPDPGMFPSLHHSQNLLRAVSNMLQKARQTLEFYPCTSEEIDHEDITKDKTSTVEACLPLELTKNESCLNSRETSFITNGSSLASRKTSFMMALCLSSIYEDLKMYQVEFKTMNAKLLMDPKRQIFLDQNMLAVIDELMQALNFNSETVPQKSSLEEPDFYKTKIKLCILLHAFRIRAVTIDRVMSYLNAS
B11: IL-12p70 Y17A (protein)
chain 1: MIWELKKDVYVVELDWAPDAPGEMVVLTCDTPEEDGITWTLDQSSEVLGSGKTLTIQVKEFGDAGQYTCHKGGEVLSHSLLLLHKKEDGIWSTDILKDQKEPKNKTFLRCEAKNYSGRFTCWWLTTISTDLTFSVKSSRGSSDPQGVTCGAATLSAERVRGDNKEYEYSVECQEDSACPAAEESLPIEVMVDAVHKLKYENYTSSFFIRDIIKPDPPKNLQLKPLKNSRQVEVSWEYPDTWSTPHSYFSLTFSVQVQGKSKREKKDRVFTDKTSATVICRKNASISVRAQDRYYSSSWSEWASVPCSGGGSHHHHHH
chain 2: MRNLPVATPDPGMFPSLHHSQNLLRAVSNMLQKARQTLEFYPCTSEEIDHEDITKDKTSTVEACLPLELTKNESCLNSRETSFITNGSSLASRKTSFMMALCLSSIYEDLKMYQVEFKTMNAKLLMDPKRQIFLDQNMLAVIDELMQALNFNSETVPQKSSLEEPDFYKTKIKLCILLHAFRIRAVTIDRVMSYLNAS

In the experiment the target is IL-12RB1-hFc (human, UniProt P42701). In words: SPR, 25C. On the technique in general: SPR reads the build-up and loss of mass on a sensor chip optically.
As to B1, the Kd is 0.05 nM.

Molecule B2 yielded a Kd of 0.06 nM.

Regarding B3, the dissociation constant (Kd) was found to be 0.04 nM. The molecule B4 yielded a Kd of 0.04 nM.

As for B5, the equilibrium dissociation constant (Kd) was 0.07 nM. For B6 the value was 0.05 nM; for B7, 0.11 nM; for B8, 0.04 nM. For B9 the value was 0.03 nM; for B10, 0.07 nM. With B11 the figure was 0.07 nM.

Broadly, the Kd is a measure of binding affinity in units of concentration.
